Experimental data: patent US12072338B2, “Pharmaceutical peptides for the treatment of inflammatory diseases” (PROTAGONISTS LTD., priority 2007, dated 2024)

Experiments:
IP-10 = target: T1, IP-10 (Homo sapiens, UniProt P02778); experiment: Micro-array analysis of chemokine binding peptides: IP-10; settings: limit = start of the upper 75% of that peptide's response range
T1 construct: purchased 300-12
T1 sequence (P02778 22-98): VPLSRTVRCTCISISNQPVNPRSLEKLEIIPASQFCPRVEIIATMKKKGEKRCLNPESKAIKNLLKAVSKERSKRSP
Outline: (§1)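 Chemokines were printed at 25 and 50 μg/ml (final, in print reagent) on protein microarray slides, blocked, then exposed to recombinant peptide-displaying phage at 10^7 pfu/μl for 1 h at RT. Bound phage was detected with mouse anti-M13 mAb and Cy3 goat anti-mouse IgG; values are relative Cy3 fluorescence.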

I-TAC = target: T2, I-TAC (Homo sapiens, UniProt O14625); experiment: Micro-array analysis of chemokine binding peptides: I-TAC; settings: limit = start of the upper 75% of that peptide's response range
T2 construct: purchased 300-46
T2 sequence (O14625 22-94): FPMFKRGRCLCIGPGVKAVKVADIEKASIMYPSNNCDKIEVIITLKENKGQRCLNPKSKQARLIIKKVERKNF
Outline: as §1

Eotaxin 3 = target: T3, Eotaxin 3 (Homo sapiens, UniProt Q9Y258); experiment: Micro-array analysis of chemokine binding peptides: Eotaxin 3; settings: limit = start of the upper 75% of that peptide's response range
T3 construct: purchased 300-48
T3 sequence (Q9Y258 24-94): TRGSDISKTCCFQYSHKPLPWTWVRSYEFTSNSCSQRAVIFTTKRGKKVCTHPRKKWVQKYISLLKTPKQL
Outline: as §1

SDF1-α = target: T4, SDF1-α (Homo sapiens, UniProt P48061); experiment: Micro-array analysis of chemokine binding peptides: SDF1-α
T4 construct: purchased 300-28a
Experimental: (§2) (1) Printing: Chemokine (CK) solution (in water) was serially diluted with Print Reagent (GenTel BioSurfaces USA) to final concentrations of 50 μg and 25 μg/ml. BSA/BSA-Biotin control solutions (in water) were diluted with Print Reagent to 100 μg/ml. Amplified stock of M13 phage control (M13KEgIII Cloning Vector, New England Biolabs, Cat.No.E8101S) was stored in Tris Buffered Saline (TBS; pH7.5, 4° C.) and diluted with Print Reagent to the working titre (10^8 pfu/μl). An automated spotting robot (16 pin print tool, 0.4 mm head; BioRobotics, UK) was used to print the CK/BSA control/M13 control, 5 repeats per sample (CK 25 μg/ml and 50 μg/ml; BSA 100 μg/ml; M13 20 μl), on PATH Protein Microarray Slides (GenTel, Prod.No. 2-1005/-1025) at […], and 50-70% relative humidity. Printed micro-array slides were stored at Room Temperature (RT) or 4° C. for at least 24 h before use.
(§3) (2) Blocking: Block Buffer (500 μl/partition; PATHblock, GenTel, Prod.No. 2-1014) was applied to the slide for 1 hour at room temp (RT). After removal of Block Buffer, the slide was air dried for 25 minutes;
(§4) (3) Phage Presented Peptide Binding: Amplified recombinant phage stock was stored in TBS and diluted with Wash Buffer to working titer (10^7 pfu/μl). Recombinant phage suspension (300 μl) was applied per partition and incubated at RT for 1 hour with gentle agitation.
(§5) (4) First Washing: The slides were washed twice with Wash Buffer 300 μl/partition).
(§6) (5) Primary Antibody (Ab) Labeling: The slides were incubated with the Primary Ab (1 mg/ml diluted ×2500 (Wash Reagent), 300 μl; Mouse Anti-M13 monoclonal Ab; Amersham Biosciences, UK; Product Code 27-9420-01) for 45 minutes at RT.
(§7) (6) Second Washing: The slides were washed twice with Wash Buffer (300 μl/partition).
(§8) (7) Secondary Ab Labeling: The slides were incubated with Secondary Ab (1.5 mg/ml diluted ×5000 (Wash Reagent), 300 μl; Cy3-conjugated AffiniPure Goat Anti-Mouse IgG; Jackson ImmunoReserch Labs, USA; Product Code 115-165-062).
(§9) (8) Third Washing: The slides were washed twice with Wash Buffer (300 μl/partition).
(§10) (9) Rinse: the slides were rinsed twice with Rinse Buffer (PATHrinse, GenTel, Prod.No. 2-1018) then dried well.
(§11) (10) Scanning: The peptide-bound, labeled slide was scanned (Laser Intensity 80%, Gain 80%, Resolution 10 μm) with a ScanArray Life Scanner (Packard BioChip Technologies, USA).
(§12) (11) Analysis: Quantitative analysis of micro-array was performed by the SpotReader program of Niles Scientific (USA) and presented as Relative Fluorescence (RF) as a function of CK concentration. Micro-array readout (Cy3 fluorescence) was quantified to determine the relative binding affinities of a CBP for the CKs and by inference, the specificity of the CBP for binding to a CK.

SDF1-β = target: T5, SDF1-β (Homo sapiens, UniProt P48061); experiment: Micro-array analysis of chemokine binding peptides: SDF1-β
T5 construct: purchased 300-28b
Outline: as §1

BCA-1 = target: T6, BCA-1 (Homo sapiens, UniProt O43927); experiment: Micro-array analysis of chemokine binding peptides: BCA-1
T6 construct: purchased 300-47
T6 sequence (O43927 23-109): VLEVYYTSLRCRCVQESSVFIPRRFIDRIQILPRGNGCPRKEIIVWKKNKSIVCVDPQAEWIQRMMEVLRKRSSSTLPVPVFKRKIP
Outline: as §1

TECK = target: T7, TECK (Homo sapiens, UniProt O15444); experiment: Micro-array analysis of chemokine binding peptides: TECK
T7 construct: purchased 300-45
T7 sequence (O15444 24-150): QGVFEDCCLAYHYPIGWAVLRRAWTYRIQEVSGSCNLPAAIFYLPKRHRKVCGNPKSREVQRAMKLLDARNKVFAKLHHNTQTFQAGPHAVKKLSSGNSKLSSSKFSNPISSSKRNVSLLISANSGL
Outline: as §1

Exodus-2 = target: T8, Exodus-2 (Homo sapiens, UniProt O00585); experiment: Micro-array analysis of chemokine binding peptides: Exodus-2
T8 construct: purchased 300-35
T8 sequence (O00585 24-134): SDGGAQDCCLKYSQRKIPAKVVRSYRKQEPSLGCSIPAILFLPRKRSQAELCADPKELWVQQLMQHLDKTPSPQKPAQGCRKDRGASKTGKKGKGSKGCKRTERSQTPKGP
Outline: as §1

C-TAC = target: T9, C-TAC (Homo sapiens, UniProt Q9Y4X3); experiment: Micro-array analysis of chemokine binding peptides: C-TAC
T9 construct: purchased 300-54
T9 sequence (Q9Y4X3 25-112): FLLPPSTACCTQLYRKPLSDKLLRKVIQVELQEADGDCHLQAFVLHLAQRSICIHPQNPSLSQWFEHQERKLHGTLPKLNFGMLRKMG
Experimental: as §2, §3, §4, §5
(5) Primary Antibody (Ab) Labeling: The slides were incubated with the Primary Ab (1 mg/ml diluted ×2500 (Wash Reagent), 300 μl; Mouse Anti-M13 monoclonal Ab; Amersham Biosciences, UK; Product Code 27-9420-01) for 45 minutes at RT. […]
as §12

IL-8 = experiment: Micro-array analysis of chemokine binding peptides: IL-8; settings: limit = start of the upper 75% of that peptide's response range
Outline: as §1

Mig = target: T10, Mig (Homo sapiens, UniProt Q07325); experiment: Micro-array analysis of chemokine binding peptides: Mig; settings: limit = start of the upper 75% of that peptide's response range
T10 construct: purchased 300-26
T10 sequence (Q07325 23-125): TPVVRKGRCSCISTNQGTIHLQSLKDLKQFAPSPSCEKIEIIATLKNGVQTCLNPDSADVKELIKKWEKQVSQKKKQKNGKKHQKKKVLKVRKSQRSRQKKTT
Outline: as §1

I-309 = target: T11, I-309 (Homo sapiens, UniProt P22362); experiment: Micro-array analysis of chemokine binding peptides: I-309; settings: limit = start of the upper 75% of that peptide's response range
T11 construct: purchased 300-37
T11 sequence (P22362 24-96): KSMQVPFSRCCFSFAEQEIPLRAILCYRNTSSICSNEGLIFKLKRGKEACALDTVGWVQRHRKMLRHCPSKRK
Outline: as §1

MCP-2 = target: T12, MCP-2 (Homo sapiens, UniProt P80075); experiment: Micro-array analysis of chemokine binding peptides: MCP-2; settings: limit = start of the upper 75% of that peptide's response range
T12 construct: purchased 300-15
T12 sequence (P80075 24-99): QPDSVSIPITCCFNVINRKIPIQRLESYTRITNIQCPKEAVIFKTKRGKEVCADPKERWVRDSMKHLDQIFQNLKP
Outline: as §1

MCP-4 = target: T13, MCP-4 (Homo sapiens, UniProt Q99616); experiment: Micro-array analysis of chemokine binding peptides: MCP-4; settings: limit = start of the upper 75% of that peptide's response range
T13 construct: purchased 300-24
Outline: as §1

Eotaxin = target: T14, Eotaxin (Homo sapiens, UniProt P51671); experiment: Micro-array analysis of chemokine binding peptides: Eotaxin; settings: limit = start of the upper 75% of that peptide's response range
T14 construct: purchased 300-21
Outline: as §1

Fractalkine = target: T15, Fractalkine (Homo sapiens, UniProt P78423); experiment: Micro-array analysis of chemokine binding peptides: Fractalkine
T15 construct: purchased 300-31
T15 sequence (P78423 25-100 limits assumed): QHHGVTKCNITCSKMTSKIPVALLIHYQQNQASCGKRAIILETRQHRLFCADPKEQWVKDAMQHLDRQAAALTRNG
Outline: as §1

Lymphotactin = target: T16, Lymphotactin (Homo sapiens, UniProt P47992); experiment: Micro-array analysis of chemokine binding peptides: Lymphotactin
T16 construct: purchased 300-20
T16 sequence (P47992 22-114): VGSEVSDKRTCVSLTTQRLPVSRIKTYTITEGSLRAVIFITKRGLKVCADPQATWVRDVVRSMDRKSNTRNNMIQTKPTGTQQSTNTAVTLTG
Outline: as §1

SDF1 = experiment: Micro-array analysis of chemokine binding peptides: SDF1 (isoform not given)
Experimental: as §2, §3, §4, §5, §6, §7, §8, §9, §10, §11, §12

Sequence of IL-8 (P10145 28-99 limits assumed): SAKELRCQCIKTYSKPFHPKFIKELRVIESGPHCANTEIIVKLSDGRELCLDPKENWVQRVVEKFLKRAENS
Sequence of SDF1 (P48061 22-89 limits assumed): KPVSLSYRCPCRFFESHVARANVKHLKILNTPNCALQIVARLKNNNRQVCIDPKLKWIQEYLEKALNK
T4 sequence (P48061 22-89 limits assumed): as above
T13 sequence (Q99616 17-98): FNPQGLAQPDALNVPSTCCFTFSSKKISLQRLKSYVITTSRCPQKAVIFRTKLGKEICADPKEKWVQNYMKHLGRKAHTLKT
T14 sequence (P51671 24-97): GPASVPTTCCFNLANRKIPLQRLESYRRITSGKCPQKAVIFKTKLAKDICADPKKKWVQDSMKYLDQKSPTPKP
T5 sequence (P48061 22-93): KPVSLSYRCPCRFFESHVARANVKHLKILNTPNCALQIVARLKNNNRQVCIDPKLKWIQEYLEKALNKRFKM

“NAMCK (listed as Homo sapiens) [Ph-p8.11]” was tested, and the “binding to IP-10 with relatively high affinity (Relative Fluorescence Units)” value (IP-10) was > 10,000 RFU, the “binding to I-TAC with relatively high affinity (Relative Fluorescence Units)” value (I-TAC) was > 10,000 RFU and the “binding to Eotaxin 3 with relatively high affinity (Relative Fluorescence Units)” value (Eotaxin 3) was > 10,000 RFU. For the same substance, the “binding to SDF1-α, stated in words” value (SDF1-α) was “bound”, the “binding to SDF1-β, stated in words” value (SDF1-β) was “bound” and the “binding to BCA-1, stated in words” value (BCA-1) was “bound”. The “binding to TECK, stated in words” value (TECK) was “bound”, the “binding to Exodus-2, stated in words” value (Exodus-2) was “bound” and the “binding to C-TAC, stated in words” value (C-TAC) was “bound”.

With WVFG (listed as Homo sapiens) [Ph-p8.4] the “binding to IL-8 with relatively high affinity (Relative Fluorescence Units)” value (IL-8) was > 15,000 RFU, the “binding to Mig with relatively high affinity (Relative Fluorescence Units)” value (Mig) was > 15,000 RFU and the “binding to IP-10 with relatively high affinity (Relative Fluorescence Units)” value (IP-10) was > 15,000 RFU. The “binding to I-TAC with relatively high affinity (Relative Fluorescence Units)” value (I-TAC) was > 15,000 RFU, the “binding to I-309 with relatively high affinity (Relative Fluorescence Units)” value (I-309) was > 15,000 RFU and the “binding to MCP-2 with relatively high affinity (Relative Fluorescence Units)” value (MCP-2) was > 15,000 RFU. For the same substance, the “binding to MCP-4 with relatively high affinity (Relative Fluorescence Units)” value (MCP-4) was > 15,000 RFU, the “binding to Eotaxin with relatively high affinity (Relative Fluorescence Units)” value (Eotaxin) was > 15,000 RFU and the “binding to Eotaxin 3 with relatively high affinity (Relative Fluorescence Units)” value (Eotaxin 3) was > 15,000 RFU. The “binding to BCA-1, stated in words” value (BCA-1) was “bound”, the “binding to TECK, stated in words” value (TECK) was “bound” and the “binding to Fractalkine, stated in words” value (Fractalkine) was “bound”. The “binding to Lymphotactin, stated in words” value (Lymphotactin) was “bound” and the “binding to SDF1 (isoform not given), stated in words” value (SDF1) was “bound”.
